Assay results: US7811561 (dated 2010)

How the values were obtained:
cyclin D1 = target: T1, cyclin D1 (UniProt P25322 1-295); assay: co-immunoprecipitation and immunoblotting, NIH 3T3 cell lysates
T1 construct: Immunoprecipitated from NIH 3T3 lysates
Method: (§1) TBS was Tris-buffered saline containing 0.1% (w/v) sodium dodecyl sulfate. Samples were pre-cleared with Protein-G beads (GIBCO, Grand Island, N.Y.) and either normal rabbit or mouse serum (each at a 1:1000 dilution). Immunoprecipitation of cyclin D1 was carried out for 12 hours at 4° C. Immune complexes were precipitated using 1 to 5 micrograms of antibody and Protein-G agarose, and were then heated at 95° C. for 5 minutes in IP buffer, which comprised 93 millimolar Tris, 3% (w/v) SDS, 1.1 millimolar β-mercaptoethanol, 0.03% (w/v) bromophenol blue (BPB), and 15% (v/v) glycerol (SIGMA, Saint Louis, Mo.) at a pH of 6.8. The eluant was analyzed using a denaturing, reducing SDS-PAGE gel, and the contents of the gel were transferred to supported nitrocellulose filter by electroblotting. Filters were incubated with 1 to 5 micrograms of an antibody which binds specifically with one of the following: cyclin D1, cdk4, cdk6, PCNA, and p21. Horseradish peroxidase-linked anti-mouse or anti-rabbit whole antibody was used as a secondary antibody. Chemiluminescence was detected using an ECL™ kit (Amersham Life Science, Arlington Heights, Ill.) according to the manufacturer's instruction.
(§2) An increased level of cyclin D1 protein was detected by immunoprecipitation in lysates from NIH 3T3 cells transfected with PCMV-MCT-1, relative to asynchronously grown control cells which were not transfected or which were transfected with control vector. Because cdk4 and cdk6 associate with cyclin D1 during cell cycle progression, complex formation among these molecules was investigated using co-immunoprecipitation analysis. Increased subunit complex formation in NIH 3T3 cells constitutively expressing MCT-1, relative to cells which were not transfected with a vector encoding MCT-1. Physical interaction of PCNA with cyclin D1-cdk4/cdk6 complexes was also investigated. Co-immunoprecipitation of cyclin D1 and PCNA was detected at an increased level, relative to cells which were not transfected with a vector encoding MCT-1. Direct physical interaction was not detected between MCT-1 and any of proteins cyclin D1, cdk4, cdk6, and PCNA under these assay conditions.

cdk4 = target: T2, cdk4 (UniProt P30285 2-303); assay: as above
T2 sequence (looked up): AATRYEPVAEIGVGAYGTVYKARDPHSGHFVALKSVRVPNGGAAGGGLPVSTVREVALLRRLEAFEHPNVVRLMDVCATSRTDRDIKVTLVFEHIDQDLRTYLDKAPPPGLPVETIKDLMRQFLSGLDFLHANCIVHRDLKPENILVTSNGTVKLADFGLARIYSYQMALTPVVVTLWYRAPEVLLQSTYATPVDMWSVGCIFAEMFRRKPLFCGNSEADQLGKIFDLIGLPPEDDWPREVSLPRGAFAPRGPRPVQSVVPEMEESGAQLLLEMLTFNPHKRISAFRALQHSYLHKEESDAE
Method: as §1, §2

cdk6 = cdk6 (UniProt Q64261 1-326); assay: as above
Method: as §1, §2

PCNA = PCNA (UniProt P17918 1-261); assay: as above
Method: as §1, §2

[1] = target: GST-RB (source of Rb protein substrate)

Chain of PCNA (P17918 whole entry): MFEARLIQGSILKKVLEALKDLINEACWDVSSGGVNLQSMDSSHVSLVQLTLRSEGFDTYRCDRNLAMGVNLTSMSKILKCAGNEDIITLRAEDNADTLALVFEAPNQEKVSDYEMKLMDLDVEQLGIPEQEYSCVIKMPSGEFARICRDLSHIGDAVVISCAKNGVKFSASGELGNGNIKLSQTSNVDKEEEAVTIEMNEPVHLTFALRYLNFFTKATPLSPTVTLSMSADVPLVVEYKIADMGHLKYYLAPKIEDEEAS
T1 sequence (P25322 whole entry): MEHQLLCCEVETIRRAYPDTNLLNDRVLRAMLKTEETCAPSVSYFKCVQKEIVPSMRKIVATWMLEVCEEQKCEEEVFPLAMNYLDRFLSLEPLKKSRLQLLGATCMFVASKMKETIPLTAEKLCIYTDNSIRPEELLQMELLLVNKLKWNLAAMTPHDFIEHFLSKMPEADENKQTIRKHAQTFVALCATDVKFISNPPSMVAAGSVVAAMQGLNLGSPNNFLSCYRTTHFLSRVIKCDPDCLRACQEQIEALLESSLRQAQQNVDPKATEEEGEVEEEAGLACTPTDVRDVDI

Binder	binding result (cyclin D1)	binding result (cdk4)	binding result (cdk6)	binding result (PCNA)	in vitro immune complex kinase assay (32P phosphorylation of Rb protein) [1]
MCT-1 (Multiple Copies in T-cell malignancy) protein (other, Expressed from the full length MCT-1 cDNA (pCMV-MCT-1) in stably transfected NIH 3T3 fibroblasts and tested in cell lysates) MFKKFDEKENVSNCIQLKTSVIKGIKNQLIEQFPGIEPWLNQIMPKKDPVKIVRCHEHIEILTVNGELLFFRQREGPFYPTLRLLHKYPFILPHQQVDKGAIKFVLSGANIMCPGLTSPGAKLYPAAVDTIVAIMAEGKQHALCVGVMKMSAEDIEKVNKGIGIENIHYLNDGLWHMKTYK	no binding	no binding	no binding	no binding	
cdk6 (protein) MEKDSLSRADQQYECVAEIGEGAYGKVFKARDLKNGGRFVALKRVRVQTSEEGMPLSTIREVAVLRHLETFEHPNVVRLFDVCTVSRTDRETKLTLVFEHVDQDLTTYLDKVPEPGVPTETIKDMMFQLLRGLDFLHSHRVVHRDLKPQNILVTSSGQIKLADFGLARIYSFQMALTSVVVTLWYRAPEVLLQSSYATPVDLWSVGCIFAEMFRRKPLFRGSSDVDQLGKILDIIGLPGEEDWPRDVALPRQAFHSKSAQPIEKFVTDIDELGKDLLLKCLTFNPAKRISAYGALNHPYFQDLERYKDNLNSHLPSNQSTSELNTA					A markedly increased ability to phosphorylate Rb protein
cdk4 (protein) AATRYEPVAEIGVGAYGTVYKARDPHSGHFVALKSVRVPNGGAAGGGLPVSTVREVALLRRLEAFEHPNVVRLMDVCATSRTDRDIKVTLVFEHIDQDLRTYLDKAPPPGLPVETIKDLMRQFLSGLDFLHANCIVHRDLKPENILVTSNGTVKLADFGLARIYSYQMALTPVVVTLWYRAPEVLLQSTYATPVDMWSVGCIFAEMFRRKPLFCGNSEADQLGKIFDLIGLPPEDDWPREVSLPRGAFAPRGPRPVQSVVPEMEESGAQLLLEMLTFNPHKRISAFRALQHSYLHKEESDAE					A markedly increased ability to phosphorylate Rb protein
